Source: the supplement of paper PMC11196671

Legend:
[1] = PET hydrolysis product formed (TPA+MHET+BHET, UV-Vis) per mg enzyme (mmol/mg enzyme); higher = more PET depolymerisation activity; extreme values may be limits of the assay; conditions: 2 h
Procedure: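 Purified PET hydrolases (His-SUMO cleaved, E. coli C41(DE3) small-scale expression), 2.5 ug enzyme on 3.5 mg amorphous PET film (aFilm) or crystalline PET powder (cryPow) in 0.5 mL of 50 mM buffer (NaCitrate pH 4.5/5.5, NaPhosphate 6.5/7.5, glycine 8.5/9.5) at 60 or 70 C with shaking for 2 h. Soluble aromatic products (TPA+MHET+BHET) were quantified by UV-Vis at 260/280 nm, blank-subtracted against the no-enzyme control, and normalised per mg enzyme; duplicate reactions.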

[2] = MHET released, HPLC; higher = more MHET released; extreme values may be limits of the assay; conditions: 24 h
Procedure: (§1)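 Purified PET hydrolases, 2.5 ug enzyme on 3.5 mg amorphous PET film (aFilm) or crystalline PET powder (cryPow) in 0.5 mL of 50 mM buffer (NaCitrate pH 4.5/5.5, NaPhosphate 6.5/7.5, glycine 8.5/9.5) at 60 or 70 C with shaking for 24 h. Total aromatic product by UV-Vis (260/280 nm, blank-subtracted, normalised per mg enzyme) and individual TPA, MHET, BHET concentrations by UHPLC-DAD at 240 nm; duplicate reactions.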

[3] = BHET released, HPLC; higher = more BHET released; extreme values may be limits of the assay; conditions: 24 h
Procedure: as §1

[4] = PET hydrolysis product formed (TPA+MHET+BHET, UV-Vis) per mg enzyme (mmol/mg enzyme); higher = more PET depolymerisation activity; extreme values may be limits of the assay; conditions: 24 h
Procedure: as §1

ANPYERGPNPTDALLEARSGPFSVSEENVSRLSASGFGGGTIYYPRENNTYGAVAISPGYTGTEASIAWLGERIASHGFVVITIDTITTLDQPDSRAEQLNAALNHMINRASSTVRSRIDSSRLAVMGHSMGGGGSLRLASQRPDLKAAIPLTPWHLNKNWSSVTVPTLIIGADLDTIAPVATHAKPFYNSLPSSISKAYLELDGATHFAPNIPNKIIGKYSVAWLKRFVDNDTRYTQFLCPGPRDGLFGEVEEYRSTCPF [TfCut2]
Conditions	BHET released, [3] [mM]	MHET released, [2] [mM]	PET hydrolysis product formed, [1]	PET hydrolysis product formed, [4]
PET substrate: aFilm, 60 °C, pH 4.5	0	0	0	0
PET substrate: aFilm, 60 °C, pH 5.5	0.00214	0.0544	0	0.0295
PET substrate: aFilm, 60 °C, pH 6.5	0.00244	0.0658	0.00338	0.0361
PET substrate: aFilm, 60 °C, pH 7.5	0.00625	0.213	0.0101	0.111
PET substrate: aFilm, 60 °C, pH 8.5	0	0.105	0.00697	0.0556
PET substrate: aFilm, 60 °C, pH 9.5	0	0.143	0.0114	0.133
PET substrate: aFilm, 70 °C, pH 4.5	0	0	0	0
PET substrate: aFilm, 70 °C, pH 5.5	0	0.00251	0	0
PET substrate: aFilm, 70 °C, pH 6.5	0	0.00766	0	0.0032
PET substrate: aFilm, 70 °C, pH 7.5	0	0	0.00351	0
PET substrate: aFilm, 70 °C, pH 8.5	0	0.0146	0.00376	0.0109
PET substrate: aFilm, 70 °C, pH 9.5	0	0	0.00877	0.0072
PET substrate: cryPow, 60 °C, pH 4.5	0	0	0	0
PET substrate: cryPow, 60 °C, pH 5.5	0	0.0126	0	0
PET substrate: cryPow, 60 °C, pH 6.5	0	0.0226	0	0.00709
PET substrate: cryPow, 60 °C, pH 7.5	0.0022	0.104	0	0.0369
PET substrate: cryPow, 60 °C, pH 8.5	0	0.0471	0	0.0198
PET substrate: cryPow, 60 °C, pH 9.5	0	0.0249	0.00389	0.0223
PET substrate: cryPow, 70 °C, pH 4.5	0	0	0	0
PET substrate: cryPow, 70 °C, pH 5.5	0	0	0	0
PET substrate: cryPow, 70 °C, pH 6.5	0	0	0	0
PET substrate: cryPow, 70 °C, pH 7.5	0	0	0	0
PET substrate: cryPow, 70 °C, pH 8.5	0	0.00527	0	0
PET substrate: cryPow, 70 °C, pH 9.5	0	0	0	0
